Patent US20200390811A1

Test system: RISR-RIAD peptide with myc and ddk (FLAG) tags, expressed in T cells
Sequence (chain, as listed by the source): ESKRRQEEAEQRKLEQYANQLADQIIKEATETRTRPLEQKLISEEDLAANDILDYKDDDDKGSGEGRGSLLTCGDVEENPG

With “Protein kinase A (PKA), RI regulatory subunit” the “phosphorylation of Csk-S364 and Lck-Y505 (blot, FIG. 2)” value was “RISR-RIAD expression prevented phosphorylation of Csk-S364 and Lck-Y505”.
